Test results as given in PMC3937768 (Cell metabolism, 2014).

Biological target: the molecule itself
Assay: non-reducing SDS-PAGE with immunoblot

B1: Recombinant AMPKα2 (enzyme, rat, UniProt Q09137 1-552, looked up)
chain: MAEKQKHDGRVKIGHYVLGDTLGVGTFGKVKIGEHQLTGHKVAVKILNRQKIRSLDVVGKIKREIQNLKLFRHPHIIKLYQVISTPTDFFMVMEYVSGGELFDYICKHGRVEEVEARRLFQQILSAVDYCHRHMVVHRDLKPENVLLDAQMNAKIADFGLSNMMSDGEFLRTSCGSPNYAAPEVISGRLYAGPEVDIWSCGVILYALLCGTLPFDDEHVPTLFKKIRGGVFYIPEYLNRSIATLLMHMLQVDPLKRATIKDIREHEWFKQDLPSYLFPEDPSYDANVIDDEAVKEVCEKFECTESEVMNSLYSGDPQDQLAVAYHLIIDNRRIMNQASEFYLASSPPTGSFMDDMAMHIPPGLKPHPERMPPLIADSPKARCPLDALNTTKPKSLAVKKAKWHLGIRSQSKPYDIMAEVYRAMKQLDFEWKVVNAYHLRVRRKNPVTGNYVKMSLQLYLVDNRSYLLDFKSIDDEVVEQRSGSSTPQRSCSAAGLHRPRSSVDSSTAENHSLSGSLTGSLTGSTLSSASPRLGSHTMDFFEMCASLITALAR
B1: binds.
